Results reported in the RNAGym collection of RNA variant scans (doi:10.7554/elife.80360).

B1: CPEB3 Ribozyme (parent)
chain: GGGGGCCACAGCAGAAGCGUUCACGUCGCGGCCCCUGUCAGAUUCUGGUGAAUCUGCGAAUUCUGCUGU

Variants of: B1
Experiment: self-cleavage, relative activity (ratio to wild type); higher = more cleavage; co-transcriptional

Row | Variant | self-cleavage
1 | G1U A23G | 0.141
2 | G1U A40G | 0.0819
3 | G1U A40U | 0.0879
4 | G1U A52C | 0.112
5 | G1U A60G | 0.128
6 | G1U A60U | 0.033
7 | G1U C7U | 0.0859
8 | G1U C9A | 0.181
9 | G1U C12A | 0.0761
10 | G1U C18A | 0.0311
11 | G1U C24A | 0.0939
12 | G1U C24U | 0.0825
13 | G1U C27U | 0.0539
14 | G1U C33G | 0.102
15 | G1U C33U | 0.214
16 | G1U C34U | 0.147
17 | G1U C35G | 0.0241
18 | G1U C39G | 0.103
19 | G1U C45A | 0.11
20 | G1U C54U | 0.136
21 | G1U C57A | 0.0933
22 | G1U C63G | 0.111
23 | G1U C66U | 0.127
24 | G1U G2U | 0.392

Row | Variant | self-cleavage
25 | G1U G5A | 0.101
26 | G1U G5U | 0.0243
27 | G1U G11C | 0.118
28 | G1U G11U | 0.129
29 | G1U G14U | 0.0869
30 | G1U G17A | 0.0548
31 | G1U G17C | 0.0433
32 | G1U G19C | 0.0611
33 | G1U G19U | 0.0505
34 | G1U G25A | 0.0632
35 | G1U G25C | 0.0418
36 | G1U G25U | 0.0227
37 | G1U G28U | 0.0723
38 | G1U G30A | 0.0902
39 | G1U G37C | 0.0508
40 | G1U G37U | 0.0468
41 | G1U G47C | 0.0959
42 | G1U G50A | 0.139
43 | G1U G56A | 0.111
44 | G1U G58A | 0.0859
45 | G1U U20C | 0.068
46 | G1U U20G | 0.0369
47 | G1U U21A | 0.054
48 | G1U U26A | 0.0674

Row | Variant | self-cleavage
49 | G1U U26G | 0.0529
50 | G1U U36A | 0.0485
51 | G1U U38A | 0.0964
52 | G1U U46C | 0.0797
53 | G1U U53C | 0.143
54 | G1U U61C | 0.117
55 | G1U U69C | 0.284
56 | G2A A8C | 0.194
57 | G2A A10U | 0.336
58 | G2A A13U | 0.121
59 | G2A A15G | 0.166
60 | G2A A16C | 0.0551
61 | G2A A16G | 0.179
62 | G2A A23U | 0.284
63 | G2A A40C | 0.0341
64 | G2A A40G | 0.105
65 | G2A A42G | 0.196
66 | G2A A52C | 0.167
67 | G2A A60G | 0.0573
68 | G2A A60U | 0.0695
69 | G2A C7G | 0.063
70 | G2A C12A | 0.0566
71 | G2A C12U | 0.201
72 | G2A C18A | 0.0515

Row | Variant | self-cleavage
73 | G2A C18G | 0.0324
74 | G2A C22A | 0.0696
75 | G2A C24A | 0.0565
76 | G2A C24U | 0.0737
77 | G2A C32A | 0.0579
78 | G2A C32G | 0.0194
79 | G2A C33G | 0.0627
80 | G2A C34G | 0.03
81 | G2A C39G | 0.0948
82 | G2A C45A | 0.132
83 | G2A C45U | 0.117
84 | G2A C54G | 0.0929
85 | G2A C63A | 0.104
86 | G2A G4A | 0.0501
87 | G2A G4C | 0.0317
88 | G2A G4U | 0.0384
89 | G2A G5U | 0.0444
90 | G2A G17C | 0.0329
91 | G2A G19C | 0.0616
92 | G2A G25A | 0.0813
93 | G2A G28C | 0.0268
94 | G2A G31C | 0.0358
95 | G2A G31U | 0.0712
96 | G2A G41C | 0.0676

Row | Variant | self-cleavage
97 | G2A G47U | 0.276
98 | G2A G65A | 0.163
99 | G2A G68U | 0.335
100 | G2A U20A | 0.0398
101 | G2A U20C | 0.0328
102 | G2A U38G | 0.0237
103 | G2A U44A | 0.111
104 | G2A U44G | 0.0958
105 | G2A U49A | 0.179
106 | G2A U53A | 0.111
107 | G2A U53C | 0.104
108 | G2A U61A | 0.0537
109 | G2A U61G | 0.0696
110 | G2A U69C | 0.457
111 | G2C A8G | 0.0226
112 | G2C A13C | 0.0327
113 | G2C A23G | 0.0311
114 | G2C A23U | 0.1
115 | G2C A42C | 0.0895
116 | G2C A42U | 0.0317
117 | G2C A51U | 0.056
118 | G2C A52G | 0.0291
119 | G2C A52U | 0.0375
120 | G2C A59G | 0.106

Row | Variant | self-cleavage
121 | G2C C7G | 0.0326
122 | G2C C9U | 0.0977
123 | G2C C12A | 0.0486
124 | G2C C18G | 0.0398
125 | G2C C22G | 0.02
126 | G2C C24U | 0.0323
127 | G2C C27U | 0.0172
128 | G2C C29A | 0.0311
129 | G2C C34G | 0.0583
130 | G2C C35U | 0.0408
131 | G2C C39A | 0.108
132 | G2C C39G | 0.0347
133 | G2C C54G | 0.0261
134 | G2C C63A | 0.0459
135 | G2C C63U | 0.0396
136 | G2C C66G | 0.0186
137 | G2C G3U | 0.0339
138 | G2C G5C | 0.0267
139 | G2C G5U | 0.0585
140 | G2C G14U | 0.0531
141 | G2C G17U | 0.0711
142 | G2C G19A | 0.0455
143 | G2C G25A | 0.0488
144 | G2C G30C | 0.072

Row | Variant | self-cleavage
145 | G2C G37C | 0.0304
146 | G2C G41A | 0.0552
147 | G2C G47A | 0.0652
148 | G2C G47U | 0.0378
149 | G2C G48A | 0.0788
150 | G2C G50A | 0.0951
151 | G2C G58A | 0.0591
152 | G2C G65A | 0.0284
153 | G2C G65U | 0.102
154 | G2C G68U | 0.0864
155 | G2C U20G | 0.0688
156 | G2C U21C | 0.0403
157 | G2C U36A | 0.0481
158 | G2C U36G | 0.052
159 | G2C U38A | 0.0483
160 | G2C U43G | 0.0524
161 | G2C U44A | 0.0552
162 | G2C U44G | 0.06
163 | G2C U53A | 0.0158
164 | G2C U53C | 0.0834
165 | G2C U55A | 0.0429
166 | G2C U62C | 0.011
167 | G2C U69G | 0.0519
